{
  "source": "the nanobody polyreactivity screen of Harvey et al. (2022)",
  "data": [
    {"test": "yeast display, Sf9 membrane polyspecificity reagent, FACS + sequencing; frameworks hold sequencing errors", "summary_of_the_method": "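In a synthetic yeast display library (Saccharomyces cerevisiae BJ5465), nanobody expression was induced with galactose for 36–48 hours. FACS gates were set low and high (top ~1%) using anti-HA fluorescence for expression and streptavidin fluorescence for binding of the Sf9 membrane reagent. Each polyreactivity label is drawn from the gate of origin.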", "values": [
      {"sequence": "QVQLVESGGRLGQAGGSLRLRCAASGYNFGTYDMGWYRPAPGKERELVAAISIGGSTNYADSVKGRFTISRDNAKNTVYLQMNSLKPEDTAVYYCAAEVNVGTLLLSVIVEDGDYWGQGTEVTVSS", "polyreactivity (PSR sort gate)": "low polyreactivity"},
      {"sequence": "QVQLVESGGRLVKAGGSLRLSCPASGRIFADYAMGWYRQAPGKESELVADIRRSGGRTYYADSVKGRFTISRDNAKNTVYIQMNSLKPEDTAVYYCATDYGSWGDYSGNYDYWGQGTQVTVSS", "polyreactivity (PSR sort gate)": "low polyreactivity"},
      {"sequence": "QVQLVESGGRLVQAGGILRLSCAASGSTFDKNAMGWYRQAPGKERQLVAAINNGGGTTYYADSVKGRFTISRDNAKNTVYLQMNSLKPEDTAVYYCAAVGKAYWSDYQYRYYYWGQGTQVTVSS", "polyreactivity (PSR sort gate)": "low polyreactivity"},
      {"sequence": "QVQLVESGGRLVQAGGRLRLRSAASGFTFSRNAMGWYRQAPGKERELVAAIDSGGSTDYAVSVKGRFTISRDNAKNTVYLQMNSLKPADTAVYYCAKASSATRYVQLRQDYDYWGQGTQVTVSS", "polyreactivity (PSR sort gate)": "low polyreactivity"},
      {"sequence": "QVQLVESGGRLVQAGGSLRISRAASGFTFPSYTMGWYRQAPGKERELVAAITSSGGNTYYADSVKGRFTISRDNAKNTVYLQMNSLKPEVTAVYYCATVSVRWPSNDHVRYDYWGQGTQVTVSS", "polyreactivity (PSR sort gate)": "low polyreactivity"},
      {"sequence": "QVQLVESGGRLVQAGGSLRLICADSGGIFGRYAMGWSRQAHGKERELVAAISKNGDSTYYAYSVKGRFTISRDNAKNTVYLKMNSLKPEDTAVYYCAAAKYRPKYGKNDYLGQGTQVTVSS", "polyreactivity (PSR sort gate)": "low polyreactivity"},
      {"sequence": "QVQLVESGGRLVQAGGSLRLRCAASGFIFGWYTMGWYRQAPGKERELVASISRSGGSTYYADSVKGRFTISRDNEKNTVYVQMNSLKPEDTAVSYCAKRSLVDAHGYWGQGTQVTVSS", "polyreactivity (PSR sort gate)": "high polyreactivity"},
      {"sequence": "QVQLVESGGRLVQAGGSLRLSCAASGFIFAYNAMGWYRQAPGKERELVAAISWSGGSTYYADSVKGRFTISRDNAKNTVYLQMNSLKPEDTAVSYCNKYIRYPFKRYGYWGQGTQVTVSS", "polyreactivity (PSR sort gate)": "high polyreactivity"},
      {"sequence": "QVQLVESGGRLVQAGGSLRLSCAASGFIFGTYAMGWYRQAPGKEREFVAAITRSGSSTYYADSVKGRFTISRDNAKNTVYLQMNSLKPEDTAVYYCAADLTRGRFRYYYWGQGTQVTVSS", "polyreactivity (PSR sort gate)": "high polyreactivity"},
      {"sequence": "QVQLVESGGRLVQAGGSLRLSCAASGFIFVGNDMAWYRQAPGKVRELVAAISSGGTTNYADSVKGRFTNSRDNAKNTVYLQMNSLKPEDTAVYDCAADYDYRQGYDSVHLDYWGQGTQVTVSS", "polyreactivity (PSR sort gate)": "low polyreactivity"},
      {"sequence": "QVQLVESGGRLVQAGGSLRLSCAASGFIFYSYDMGWYRQAPGKERELVAAIDSRGVNTYYADSVKGRFTISRDNAKNTVYLQMNSLKPEDTAVYYCAAEVVYPVYEYDYWGQGTQVTVSS", "polyreactivity (PSR sort gate)": "low polyreactivity"},
      {"sequence": "QVQLVESGGRLVQAGGSLRLSCAASGFIISFNAMGWYRQATGKERELVATISGGGGSTYYADSVKGRFTISRDKAKNTVYLQMKSLKPEDTAVYYCAKSYRYRGDYWGQGTQVTVSS", "polyreactivity (PSR sort gate)": "high polyreactivity"},
      {"sequence": "QVQLVESGGRLVQAGGSLRLSCAASGFTFGAYAMGWYRQAPGKERELVATIRYSGDSTYYADSVKGRFTISRDNAKNTVYLQMNSLKPEDTAVSSCAAYSTEGGGSPDWFESFDYWGQGTQVTVSS", "polyreactivity (PSR sort gate)": "low polyreactivity"},
      {"sequence": "QVQLVESGGRLVQAGGSLRLSCAASGFTFLYYAMGWYRQAPGKERELVATITRTSRTYYADSVKGRFTISRDNAKNTVYLQMNSLKPEDTAVYYCAADTPYLRRRLGMDYWGQGTQVTVSS", "polyreactivity (PSR sort gate)": "high polyreactivity"},
      {"sequence": "QVQLVESGGRLVQAGGSLRLSCAASGGTFPTNAMGWYTQAPGKERELVAAITSSGVRTYYADSVKGRFTISRDNAKNTVYLQMNSLKPEDTAVYYCNAVTRYVRLTDDDYWGQGSQVTVSS", "polyreactivity (PSR sort gate)": "high polyreactivity"},
      {"sequence": "QVQLVESGGRLVQAGGSLRLSCAASGIIFFYYTIGWSRQAPGKERELVAAISSGGGTYYADSVKGRFTISRDNAKNTVYLQMNSLKPEDTAVYYCAAVRYSSSSRGGYWGQGTQVTVSS", "polyreactivity (PSR sort gate)": "high polyreactivity"},
      {"sequence": "QVQLVESGGRLVQAGGSLRLSCAASGITFIDYAMGWYRQAPGKERELVAAIRYSAGSTYYADSVKGRFTISRDNAKNTVYLQMNSLKPEDTAVYYCARTTPSGRQYRRYDYWGQGTQVTVSS", "polyreactivity (PSR sort gate)": "low polyreactivity"},
      {"sequence": "QVQLVESGGRLVQAGGSLRLSCAASGITFYLNAMGWYRQAPGKERELVADITVSGGSTYYADSVKGRFTISRDNAKNTVYLQMNSLKPEDTAVYYCAADLTISYSQEYYYWGQGNQVTVSS", "polyreactivity (PSR sort gate)": "low polyreactivity"},
      {"sequence": "QVQLVESGGRLVQAGGSLRLSCAASGLTFSSYAMGWYRQAPGKERQLVAAISRGGGSTYYADSVKGRFTISRDNAKNTGYLQMNSLKPEDTAVYYCAADSGFWWLYDYWGQGTHVTVSS", "polyreactivity (PSR sort gate)": "high polyreactivity"},
      {"sequence": "QVQLVESGGRLVQAGGSLRLSCAASGLTFVYNTMGWYSQAPGKERKLVAAISSSGGTTYYADSVKGRFTISRDNAKNTVYLQMNSLKPEDTAVYYCAARPSGGYESTRTRDYWGQGTQVTVSS", "polyreactivity (PSR sort gate)": "low polyreactivity"},
      {"sequence": "QVQLVESGGRLVQAGGSLRLSCAASGRIFATYAMGWYRQAPGKEWQLVAGITSGGRTNYADSVKGRFTISRDNAKNTVYLQMNSLKPEDTAVYYCDKRVWPRDQYGKRNPRMDYWGQGTQETVSS", "polyreactivity (PSR sort gate)": "high polyreactivity"},
      {"sequence": "QVQLVESGGRLVQAGGSLRLSCAASGRIFKYYAMGWYRPAPGKERELVAAINRDGGRTYYADSVKGRFTISRDTAKISVYLQMNSLKPEDTAVYYCAASYGYVYTTSLDYWGQGTQVTVSS", "polyreactivity (PSR sort gate)": "low polyreactivity"},
      {"sequence": "QVQLVESGGRLVQAGGSLRLSCAASGRIFRRYAMGWYRQAPGKERELVAAISGSGGSTYYADSVKGRFTISRDNAKNTVYLQMNCLKPEDTAVYYCAARVGLGYDRLKSEYNYWGQGTQVTVSS", "polyreactivity (PSR sort gate)": "high polyreactivity"},
      {"sequence": "QVQLVESGGRLVQAGGSLRLSCAASGRIFSIYGMGWYRPAPGKERELVAVISGSVGITYYADSVKGRFTISRDNAKNTVYLQMNSLKPEDTAVYYCNAKVRRRKYDYWGQGTQVTVSS", "polyreactivity (PSR sort gate)": "high polyreactivity"},
      {"sequence": "QVQLVESGGRLVQAGGSLRLSCAASGRIFTWYAMGWYRQAPGKERELVAAISWTGGTTYYADSVKGRFTISRVNAKNTVYLQMNSMKPEDTEVYYCNKVVGFRSNFGGYGYCGQGTQVTVSS", "polyreactivity (PSR sort gate)": "high polyreactivity"},
      {"sequence": "QVQLVESGGRLVQAGGSLRLSCAASGRIFWWNAMGWYRQAPGKERQFVAAISYRGGSTYYADSVKGRFTISRDNAKNTVYLQMNSLKPEDTAVYYCAADWTYVGPSYSYYYWGQGTQVTVSS", "polyreactivity (PSR sort gate)": "low polyreactivity"},
      {"sequence": "QVQLVESGGRLVQAGGSLRLSCAASGRIFYNYSMGWYRQAPGKERELVATIRYRGGSTYYADSVKGRFTISRDNAKNTVYLQMNSLKPEDTAVYYCAARFNYNRDYPYYSWGQGTQVNVSS", "polyreactivity (PSR sort gate)": "high polyreactivity"},
      {"sequence": "QVQLVESGGRLVQAGGSLRLSCAASGRNFGVNAMGWYRQAPGKERELVAAISVSGDSTYYADSVKGRFTISRDNAKNTVYLQMNSLKPEDTAVYYCNAGYTFVPADLTDEYYWGQGTQVTVSS", "polyreactivity (PSR sort gate)": "low polyreactivity"},
      {"sequence": "QVQLVESGGRLVQAGGSLRLSCAASGRTFDYYDMGWYRQAPGKERELVAAITWGGGSTYYADSVKGRFSISRDNAKNTVYLQMNSLKPEDTAVYYCNADHFGWPWRVRIHEDDYWGQGTQVTVSS", "polyreactivity (PSR sort gate)": "low polyreactivity"},
      {"sequence": "QVQLVESGGRLVQAGGSLRLSCAASGRTFGGYMGWYRQAPGKESELVAVISSGDSTNYADSVKGRFTITRDNAKNTVYLQMNSVKPEDSAVYYCIAYGSDRLTLDDFWGQGTQVTVSS", "polyreactivity (PSR sort gate)": "low polyreactivity"},
      {"sequence": "QVQLVESGGRLVQAGGSLRLSCAASGRTFKKYAMGWYRQAPGKERELVAAITGSGGSTYYADSVKGRFTISRDNAKNTVYLQMNSLKPEDTAVYYCAAYAYGVWHSQDGGNFWGQGTQVTVSS", "polyreactivity (PSR sort gate)": "low polyreactivity"},
      {"sequence": "QVQLVESGGRLVQAGGSLRLSCAASGRTFSAYAMGWYRPAPGKERELVARITSVDSTNYADSVKGRFTISRDNAKNTVYLQMNSPKPEDTAVYYCNATFGYPFVDYDDYWGQGTQVTVSS", "polyreactivity (PSR sort gate)": "low polyreactivity"},
      {"sequence": "QVQLVESGGRLVQAGGSLRLSCAASGRTFTRNAMGWYRQAPGKERELVAAISWSGGSTYYADSVKGRFTISRDNAKNTVYLQMNSLKPEDTAVYYCAARIWYYNYWGQGTQVTVSS", "polyreactivity (PSR sort gate)": "high polyreactivity"},
      {"sequence": "QVQLVESGGRLVQAGGSLRLSCAASGRTFTYYAMGWYRQATGKERELVARITTVGSSTYYADSVKGRFTISRDNAKNTVYLQMNSLKPEETAVYYCNADHLWYSLFDYWGQGTQVTVSS", "polyreactivity (PSR sort gate)": "high polyreactivity"},
      {"sequence": "QVQLVESGGRLVQAGGSLRLSCAASGRTFYRYAMGWYRQAPGKERELVAAITWSGGSTYYADSVKGRFTTSRDNAKNTVYLQMNSLKPEDTAVYYCAATKRRFVKFDYWGQGTQVTVSS", "polyreactivity (PSR sort gate)": "low polyreactivity"},
      {"sequence": "QVQLVESGGRLVQAGGSLRLSCAASGRTFYRYVMGWYRQAHGQVRELVAAISEGGGSTFYADSVKGRFTISRDNAKNTVYLQLNSLKPEDTAVYYCAADYYVRGGFFRYDYWGQGTQVTVSS", "polyreactivity (PSR sort gate)": "low polyreactivity"},
      {"sequence": "QVQLVESGGRLVQAGGSLRLSCAASGRTIGYYAMGWSRQAPGNEWELVAAISGSGGSTYYADSVKGRFTISRDNAKNTVYLQMNSLKPEDTAVYYCAATTQSRRYEYYYWGQGTQVTVSS", "polyreactivity (PSR sort gate)": "high polyreactivity"},
      {"sequence": "QVQLVESGGRLVQAGGSLRLSCAASGRTIRYNAMGWYRQAPGKERELVASISDGGSTNYADSVKGRFTISRDNAKNTVYLQMNSLKPEDTAVYYCALAGYRRYGYVYWGQGTQVTVSS", "polyreactivity (PSR sort gate)": "low polyreactivity"},
      {"sequence": "QVQLVESGGRLVQAGGSLRLSCAASGSIFGYNAMGWYRQAPGKESELVAAIDKSGGNTYYADSVKGRFTISRDNANYTVYLQMNSLKPEDTAVDYCAVRAYRHRSGYSYGYWGQGTQVTVSS", "polyreactivity (PSR sort gate)": "high polyreactivity"},
      {"sequence": "QVQLVESGGRLVQAGGSLRLSCAASGSIFRSNAMGWYRQAPGKERELVATISSSTGSTYYADSVKGRFTISRDNAKNTVYLQMNSLKPEDTAVYNCAAVQPVKSSSGYHFWYYWGQGTQVTVSS", "polyreactivity (PSR sort gate)": "high polyreactivity"},
      {"sequence": "QVQLVESGGRLVQAGGSLRLSCAASGSIFSKYTMGWYRQAPGKERELVAAISRAGSTYYADSVKGRFTISRDNAKNTVYLQMNSLKPEDTAVYYCNARYRGVYPLIGNRRDYYYWGQGTQVTVSS", "polyreactivity (PSR sort gate)": "high polyreactivity"},
      {"sequence": "QVQLVESGGRLVQAGGSLRLSCAASGSIFYDNAMGWYRQAPGKERELVAVITVSGDSTYYADSVKGRFTISRDNAKNTVYLQMNSLKPEDTAVYYCNTDAISGSHFWRYITFGYLDDYWGQGTQVTVSS", "polyreactivity (PSR sort gate)": "low polyreactivity"},
      {"sequence": "QVQLVESGGRLVQAGGSLRLSCAASGSIFYYNVMGWYRQAPGKERELVAAIDIDGSTYYADSVKGRFTISRDNAKNTVYLQMNSLKPEDTAVYYCAADVHTPALYTYAAGDYWGQGTQVTVSS", "polyreactivity (PSR sort gate)": "low polyreactivity"}
    ]}
  ]
}
